{"source": "paper doi:10.1101/2023.12.10.570962", "about": "(bioRxiv, 2023)", "proteins": {"B1": {"name": "Lcl C-terminal domain (Lcl-CTD), residues 252 to 401 (domain or fragment)", "chain": "MAHHHHHHVDDDDKMETGQVLAKSNDLDFNTMWVDPANSGIRRQLGDKALGGTVIYVNALGTHGLVVANSDQVNSNTWWDAQDSITNPAHFDNEGKLYSDWRLPTRFELNLIYMMRNELGNFLAGNYWSSIEKSSANSWVFNSKTGEIKDIAKSKTAAVRAVRAF"}}, "target": "the molecule itself", "assay": "SEC-MALS"}
{"protein": "B1", "values": [{"measurement": "stoichiometry N", "value": 3}]}
